Assay results reported in patent publication US20080292615.
Positions count from the first letter of the chain named.

Columns and labels:
[1] = test system: T1, Peptide P1 (corneodesmosin fragment with L at position 40 of L20815)
T1 sequence: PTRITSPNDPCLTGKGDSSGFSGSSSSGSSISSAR

[2] = test system: T2, Peptide P2 (corneodesmosin fragment with F at position 40 of L20815)
T2 sequence: T1 sequence with L12F

Substance: chymotrypsin
- products of proteolysis after exposure of the peptide to chymotrypsin [1]: peptide P1 with L at position 40 of L20815 gives two products of proteolysis: PTRITSPNDPCL40TGKGDSSGF (SEQ ID NO 23) and SGSSSSGSSISSAR (SEQ ID NO 24)
- products of proteolysis after exposure of the peptide to chymotrypsin [2]: peptide P2 with F at position 40 of L20815 gives three small peptides PTRITSPNDPCF (SEQ ID NO 25), TGKGDSSGF (SEQ ID NO 26) and SGSSSSGSSISSAR (SEQ ID NO 24)
